Paper PMC9482650, “Quantitative fragmentomics allow affinity mapping of interactomes” (Nature Communications, 2022)

T1: CARD11, Q9BXL7
T1 sequence (Q9BXL7 662-765, limits assumed, looked up): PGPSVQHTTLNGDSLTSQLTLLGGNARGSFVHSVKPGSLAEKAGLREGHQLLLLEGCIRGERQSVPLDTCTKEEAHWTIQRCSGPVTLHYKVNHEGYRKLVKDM

T2: DFNB31_3, Q9P202
T2 sequence (Q9P202 811-907, limits assumed, looked up): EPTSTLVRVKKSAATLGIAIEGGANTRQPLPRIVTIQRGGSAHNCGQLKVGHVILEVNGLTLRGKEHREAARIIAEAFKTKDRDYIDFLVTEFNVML

T3: GRIP1_4, Q9Y3R0
T3 sequence (Q9Y3R0 467-571, limits assumed, looked up): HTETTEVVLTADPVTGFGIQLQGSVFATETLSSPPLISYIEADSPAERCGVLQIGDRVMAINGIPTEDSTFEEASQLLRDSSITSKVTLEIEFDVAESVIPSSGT

T4: GRIP1_7, Q9Y3R0
T4 sequence (Q9Y3R0 999-1096, limits assumed, looked up): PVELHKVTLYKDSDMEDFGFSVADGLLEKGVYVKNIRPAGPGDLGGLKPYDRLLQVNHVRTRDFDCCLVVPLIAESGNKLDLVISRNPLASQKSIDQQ

T5: HTRA3, P83110
T5 sequence (P83110 354-453, limits assumed, looked up): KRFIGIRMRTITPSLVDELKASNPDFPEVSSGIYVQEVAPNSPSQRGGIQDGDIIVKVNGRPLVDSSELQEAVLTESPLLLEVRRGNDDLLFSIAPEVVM

T6: LRRC7, Q96NW7
T6 sequence (Q96NW7 1440-1537, limits assumed, looked up): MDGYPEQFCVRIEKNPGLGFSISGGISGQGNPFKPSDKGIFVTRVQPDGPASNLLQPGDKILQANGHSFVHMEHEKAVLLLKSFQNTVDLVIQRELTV

T7: NHERF3_3, Q5T2W1
T7 sequence (Q5T2W1 238-333, limits assumed, looked up): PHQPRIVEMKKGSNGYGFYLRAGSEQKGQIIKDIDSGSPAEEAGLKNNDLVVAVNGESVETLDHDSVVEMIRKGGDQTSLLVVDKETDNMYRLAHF

T8: RHPN1, Q8TCX5
T8 sequence (Q8TCX5 508-602, limits assumed, looked up): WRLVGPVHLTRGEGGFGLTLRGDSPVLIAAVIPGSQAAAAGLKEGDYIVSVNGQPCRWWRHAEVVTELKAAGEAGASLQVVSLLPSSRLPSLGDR

T9: SNTA1, Q13424
T9 sequence (Q13424 82-180, limits assumed, looked up): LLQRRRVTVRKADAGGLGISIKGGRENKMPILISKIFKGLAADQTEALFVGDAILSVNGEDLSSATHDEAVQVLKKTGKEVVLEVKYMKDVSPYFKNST

T10: SNTB1, Q13884
T10 sequence (Q13884 107-205, limits assumed, looked up): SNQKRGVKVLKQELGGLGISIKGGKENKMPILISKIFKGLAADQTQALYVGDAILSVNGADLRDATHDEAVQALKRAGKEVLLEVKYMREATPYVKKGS

T11: TIAM2, Q8IVF5
T11 sequence (Q8IVF5 885-986, limits assumed, looked up): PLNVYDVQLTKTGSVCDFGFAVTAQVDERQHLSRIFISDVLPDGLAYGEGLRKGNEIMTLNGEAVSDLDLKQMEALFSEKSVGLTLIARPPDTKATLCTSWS

B1: PTPRZ1, P23471 (peptide)
chain: NIAESLESLV
B2: ZSCAN30, Q86W11 (peptide)
chain: MQHQRTHTRV
B3: SCN8A, Q9UQD0 (peptide)
chain: RQKEVRESKC

These binders were tested against T1, CARD11, Q9BXL7 (assay: holdup assay). Details: plain residues with an end cap or a label only (N-terminal biotin on a linker: ado-ado).
Design: key: below the threshold = too weak to quantify, mostly under pKd 3.1 to 4
With B1 the pKd was “below the threshold”. In the case of B2, the pKd is reported as “below the threshold”. B3 was tested, and the pKd was “below the threshold”.

What follows are binders tested against T2, DFNB31_3, Q9P202 (assay: holdup assay). Details: plain residues with an end cap or a label only (N-terminal biotin on a linker: ado-ado).
Design: key: below the threshold = too weak to quantify, mostly under pKd 3.1 to 4
With B1 the pKd was “below the threshold”. B2 was tested, and the pKd was “below the threshold”. For B3, the pKd was 3.95.

The binders below were run against DLG1_3, Q12959 (assay: holdup assay). Details: plain residues with an end cap or a label only (N-terminal biotin on a linker: ado-ado).
DLG1_3, Q12959, sequence (Q12959 457-571): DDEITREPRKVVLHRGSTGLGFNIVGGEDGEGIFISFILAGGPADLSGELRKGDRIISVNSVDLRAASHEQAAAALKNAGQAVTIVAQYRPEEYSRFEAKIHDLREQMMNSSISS
Design: key: below the threshold = too weak to quantify, mostly under pKd 3.1 to 4
With B1 the pKd was “below the threshold”. B2 gave a pKd of 3.81. B3 was tested, and the pKd was 4.13.

Each binder was assayed against DLG2_3, Q15700 (assay: holdup assay). Details: plain residues with an end cap or a label only (N-terminal biotin on a linker: ado-ado).
Design: key: below the threshold = too weak to quantify, mostly under pKd 3.1 to 4
B1 was tested, and the pKd was “below the threshold”. In the case of B2, the pKd is reported as 4.67. In the case of B3, the pKd is reported as 4.07.

Each binder was assayed against FRMPD2_3, Q68DX3 (assay: holdup assay). Details: plain residues with an end cap or a label only (N-terminal biotin on a linker: ado-ado).
FRMPD2_3, Q68DX3, sequence (Q68DX3 1073-1166): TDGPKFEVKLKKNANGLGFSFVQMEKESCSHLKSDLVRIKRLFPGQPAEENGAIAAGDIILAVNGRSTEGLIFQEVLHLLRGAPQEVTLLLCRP
Design: key: below the threshold = too weak to quantify, mostly under pKd 3.1 to 4
In the case of B1, the pKd is reported as “below the threshold”. B2 gave a pKd of 3.5. B3 was tested, and the pKd was “below the threshold”.

What follows are binders tested against GOPC, Q9HD26 (assay: holdup assay). Details: plain residues with an end cap or a label only (N-terminal biotin on a linker: ado-ado).
Design: key: below the threshold = too weak to quantify, mostly under pKd 3.1 to 4
In the case of B1, the pKd is reported as “below the threshold”. B2 showed a pKd of 4.41. With B3 the pKd was “below the threshold”.

What follows are binders tested against GORASP1, Q9BQQ3 (assay: holdup assay). Details: plain residues with an end cap or a label only (N-terminal biotin on a linker: ado-ado).
GORASP1, Q9BQQ3, sequence (Q9BQQ3 1-208): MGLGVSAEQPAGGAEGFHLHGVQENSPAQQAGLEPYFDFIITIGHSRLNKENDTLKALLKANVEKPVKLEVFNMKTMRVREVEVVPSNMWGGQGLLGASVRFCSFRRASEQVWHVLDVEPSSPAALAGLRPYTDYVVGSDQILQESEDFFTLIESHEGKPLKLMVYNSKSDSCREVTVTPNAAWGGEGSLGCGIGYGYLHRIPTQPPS
Design: key: below the threshold = too weak to quantify, mostly under pKd 3.1 to 4
For B1, the pKd was “below the threshold”. In the case of B2, the pKd is reported as 4.1. With B3 the pKd was “below the threshold”.

These binders were tested against GRASP, Q7Z6J2 (assay: holdup assay). Details: plain residues with an end cap or a label only (N-terminal biotin on a linker: ado-ado).
GRASP, Q7Z6J2, sequence (Q7Z6J2 96-193): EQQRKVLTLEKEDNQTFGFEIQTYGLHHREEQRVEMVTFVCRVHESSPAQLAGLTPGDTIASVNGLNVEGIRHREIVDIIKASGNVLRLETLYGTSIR
Design: key: below the threshold = too weak to quantify, mostly under pKd 3.1 to 4
In the case of B1, the pKd is reported as 3.74. Binder B2 has a pKd of 4.34. In the case of B3, the pKd is reported as “below the threshold”.

What follows are binders tested against T3, GRIP1_4, Q9Y3R0 (assay: holdup assay). Details: plain residues with an end cap or a label only (N-terminal biotin on a linker: ado-ado).
Design: key: below the threshold = too weak to quantify, mostly under pKd 3.1 to 4
With B1 the pKd was “below the threshold”. For B2, the pKd was “below the threshold”. For B3, the pKd was “below the threshold”.

These binders were tested against T4, GRIP1_7, Q9Y3R0 (assay: holdup assay). Details: plain residues with an end cap or a label only (N-terminal biotin on a linker: ado-ado).
Design: key: below the threshold = too weak to quantify, mostly under pKd 3.1 to 4
B1 was tested, and the pKd was “below the threshold”. For B2, the pKd was “below the threshold”. With B3 the pKd was “below the threshold”.

What follows are binders tested against GRIP2_4, Q9C0E4 (assay: holdup assay). Details: plain residues with an end cap or a label only (N-terminal biotin on a linker: ado-ado).
GRIP2_4, Q9C0E4, sequence (Q9C0E4 446-548): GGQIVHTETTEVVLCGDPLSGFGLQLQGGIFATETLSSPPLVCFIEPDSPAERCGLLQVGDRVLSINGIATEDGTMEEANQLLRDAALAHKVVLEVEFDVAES
Design: key: below the threshold = too weak to quantify, mostly under pKd 3.1 to 4
B1 was tested, and the pKd was “below the threshold”. B2 was tested, and the pKd was “below the threshold”. For B3, the pKd was “below the threshold”.

The binders below were run against GRIP2_6, Q9C0E4 (assay: holdup assay). Details: plain residues with an end cap or a label only (N-terminal biotin on a linker: ado-ado).
GRIP2_6, Q9C0E4, sequence (Q9C0E4 648-740): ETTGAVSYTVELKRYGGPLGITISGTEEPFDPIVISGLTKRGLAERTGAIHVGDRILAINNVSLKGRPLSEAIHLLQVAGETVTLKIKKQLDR
Design: key: below the threshold = too weak to quantify, mostly under pKd 3.1 to 4
B1 was tested, and the pKd was “below the threshold”. B2 was tested, and the pKd was “below the threshold”. B3 was tested, and the pKd was “below the threshold”.

These binders were tested against T5, HTRA3, P83110 (assay: holdup assay). Details: plain residues with an end cap or a label only (N-terminal biotin on a linker: ado-ado).
Design: key: below the threshold = too weak to quantify, mostly under pKd 3.1 to 4
B1 was tested, and the pKd was “below the threshold”. For B2, the pKd was “below the threshold”. With B3 the pKd was 3.5.

These binders were tested against IL16_3, Q14005 (assay: holdup assay). Details: plain residues with an end cap or a label only (N-terminal biotin on a linker: ado-ado).
IL16_3, Q14005, sequence (Q14005 1107-1207): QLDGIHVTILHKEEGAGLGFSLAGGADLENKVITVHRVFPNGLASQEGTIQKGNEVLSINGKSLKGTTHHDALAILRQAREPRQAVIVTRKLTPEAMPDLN
Design: key: below the threshold = too weak to quantify, mostly under pKd 3.1 to 4
In the case of B1, the pKd is reported as “below the threshold”. In the case of B2, the pKd is reported as “below the threshold”. In the case of B3, the pKd is reported as “below the threshold”.

The binders below were run against Inadl_10, Q8NI35 (assay: holdup assay). Details: plain residues with an end cap or a label only (N-terminal biotin on a linker: ado-ado).
Inadl_10, Q8NI35, sequence (Q8NI35 1673-1763): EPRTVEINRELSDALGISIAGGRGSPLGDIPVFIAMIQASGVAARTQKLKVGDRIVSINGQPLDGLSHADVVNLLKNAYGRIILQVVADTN
Design: key: below the threshold = too weak to quantify, mostly under pKd 3.1 to 4
With B1 the pKd was “below the threshold”. For B2, the pKd was “below the threshold”. For B3, the pKd was “below the threshold”.

The binders below were run against Inadl_2, Q8NI35 (assay: holdup assay). Details: plain residues with an end cap or a label only (N-terminal biotin on a linker: ado-ado).
Inadl_2, Q8NI35, sequence (Q8NI35 238-335): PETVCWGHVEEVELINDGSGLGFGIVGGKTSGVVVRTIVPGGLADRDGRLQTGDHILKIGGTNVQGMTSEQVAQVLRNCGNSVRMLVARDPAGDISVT
Design: key: below the threshold = too weak to quantify, mostly under pKd 3.1 to 4
B1 was tested, and the pKd was “below the threshold”. For B2, the pKd was “below the threshold”. For B3, the pKd was “below the threshold”.

What follows are binders tested against Inadl_6, Q8NI35 (assay: holdup assay). Details: plain residues with an end cap or a label only (N-terminal biotin on a linker: ado-ado).
Inadl_6, Q8NI35, sequence (Q8NI35 1058-1167): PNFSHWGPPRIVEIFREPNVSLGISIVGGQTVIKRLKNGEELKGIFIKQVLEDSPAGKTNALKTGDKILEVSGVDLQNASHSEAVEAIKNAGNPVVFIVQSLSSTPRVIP
Design: key: below the threshold = too weak to quantify, mostly under pKd 3.1 to 4
Work on B1 yielded a pKd of 4. For B2, the pKd was “below the threshold”. For B3, the pKd was “below the threshold”.

Each binder was assayed against T6, LRRC7, Q96NW7 (assay: holdup assay). Details: plain residues with an end cap or a label only (N-terminal biotin on a linker: ado-ado).
Design: key: below the threshold = too weak to quantify, mostly under pKd 3.1 to 4
Binder B1 has a pKd of 3.76. For B2, the pKd was “below the threshold”. B3 was tested, and the pKd was “below the threshold”.

The binders below were run against MAGI3_2, Q5TCQ9 (assay: holdup assay). Details: plain residues with an end cap or a label only (N-terminal biotin on a linker: ado-ado).
MAGI3_2, Q5TCQ9, sequence (Q5TCQ9 398-503): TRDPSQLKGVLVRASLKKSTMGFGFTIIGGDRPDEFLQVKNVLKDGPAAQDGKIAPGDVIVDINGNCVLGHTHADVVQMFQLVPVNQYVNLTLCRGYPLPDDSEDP
Design: key: below the threshold = too weak to quantify, mostly under pKd 3.1 to 4
For B1, the pKd was 4.92. B2 was tested, and the pKd was 5.37. Work on B3 yielded a pKd of 4.01.

Each binder was assayed against T7, NHERF3_3, Q5T2W1 (assay: holdup assay). Details: plain residues with an end cap or a label only (N-terminal biotin on a linker: ado-ado).
Design: key: below the threshold = too weak to quantify, mostly under pKd 3.1 to 4
For B1, the pKd was “below the threshold”. Binder B2 has a pKd of 3.64. With B3 the pKd was “below the threshold”.

The binders below were run against T8, RHPN1, Q8TCX5 (assay: holdup assay). Details: plain residues with an end cap or a label only (N-terminal biotin on a linker: ado-ado).
Design: key: below the threshold = too weak to quantify, mostly under pKd 3.1 to 4
Binder B1 has a pKd of 4.6. With B2 the pKd was 3.72. With B3 the pKd was “below the threshold”.

Each binder was assayed against SCRIB_1, Q14160 (assay: holdup assay). Details: plain residues with an end cap or a label only (N-terminal biotin on a linker: ado-ado).
SCRIB_1, Q14160, sequence (Q14160 718-814): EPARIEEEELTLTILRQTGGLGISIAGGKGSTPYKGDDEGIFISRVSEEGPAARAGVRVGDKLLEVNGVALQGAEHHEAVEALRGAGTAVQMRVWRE
Design: key: below the threshold = too weak to quantify, mostly under pKd 3.1 to 4
Work on B1 yielded a pKd of 3.87. B2 gave a pKd of 3.68. B3 gave a pKd of 4.53.

What follows are binders tested against T9, SNTA1, Q13424 (assay: holdup assay). Details: plain residues with an end cap or a label only (N-terminal biotin on a linker: ado-ado).
Design: key: below the threshold = too weak to quantify, mostly under pKd 3.1 to 4
B1 gave a pKd of 4.51. For B2, the pKd was 4.23. With B3 the pKd was 4.65.

These binders were tested against T10, SNTB1, Q13884 (assay: holdup assay). Details: plain residues with an end cap or a label only (N-terminal biotin on a linker: ado-ado).
Design: key: below the threshold = too weak to quantify, mostly under pKd 3.1 to 4
In the case of B1, the pKd is reported as 4.68. B2 showed a pKd of 4.15. B3 was tested, and the pKd was 4.99.

What follows are binders tested against SNX27, Q96L92 (assay: holdup assay). Details: plain residues with an end cap or a label only (N-terminal biotin on a linker: ado-ado).
Design: key: below the threshold = too weak to quantify, mostly under pKd 3.1 to 4
B1 showed a pKd of 5.09. B2 gave a pKd of 4.38. B3 gave a pKd of 5.19.

The binders below were run against T11, TIAM2, Q8IVF5 (assay: holdup assay). Details: plain residues with an end cap or a label only (N-terminal biotin on a linker: ado-ado).
Design: key: below the threshold = too weak to quantify, mostly under pKd 3.1 to 4
B1 was tested, and the pKd was “below the threshold”. Work on B2 yielded a pKd of 3.89. With B3 the pKd was 4.02.
